{"source": "patent US20240424125A1", "about": "(Zymeworks, published 2024)", "binders": {"B1": {"name": "v23924 (antibody, human IgG1, kappa, V domains shown)", "VH": "QSVKESEGGLFKPTDTLTLTCTVSGFSLSSYGVSWVRQAPGNGLEWIGAVNSGGSAYYANWAKSRSTITRNTNLFTVTLKMTSLAVADTATYFCARSGSGYPMDYLAIWGPGTLVTVSS", "VL": "AYDMTQTPASVEVAVGGTVTIKCQASQSIGDWLAWYQQKPGQPPRLLIYEASTLASGVPSRFSGSGSGTQFTLTISGVECADAATYYCQQGYGRSNVDNIFGGGTEVVVKR", "notes": "Rabbit-human chimeric full-size antibody, human IgG1/kappa, HomoFc; also called variant v23924; parental chimeric anti-FRα antibody"}}, "key": {"[1]": {"target": "T1, recombinant His-tagged human FRα (ACROBiosystems) (human, UniProt P15328 25-233)", "T1 construct": "also called hFRα; hFRα antigen; not shown: His tag", "T1 sequence (P15328 25-233 limits assumed)": "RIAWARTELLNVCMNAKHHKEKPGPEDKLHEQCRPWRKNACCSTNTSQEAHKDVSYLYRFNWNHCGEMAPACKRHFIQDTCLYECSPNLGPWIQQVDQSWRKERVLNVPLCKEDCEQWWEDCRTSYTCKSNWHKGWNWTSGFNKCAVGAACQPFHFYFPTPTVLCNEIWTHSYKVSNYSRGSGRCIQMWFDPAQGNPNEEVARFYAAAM", "experiment": "BLI (Octet RED96): antibody on anti-human IgG Fc capture biosensor, His-tagged hFRα as analyte, 1:1 global fit, mean of n=2", "method_in_brief": "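Run at 30° C with 1000 rpm shaking in kinetics buffer (PBS pH 7.4, 0.1% BSA, 0.02% Tween 20, 0.05% sodium azide) plus 0.06% Tween 20, sometimes 1% BSA. Reference-subtracted curves globally fitted to a 1:1 model, giving kon, koff and KD.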"}, "human FRα on cells [2]": {"target": "T2, human FRα on cells (human, UniProt P15328 25-234)", "T2 construct": "Transiently expressed on HEK293-6e, CHO-S or HEK293 microarray cells, or endogenous on JEG-3, HEC-1-A, IGROV-1, OVCAR-3, H2110, KB-HeLa and T-47D cells; also called human folate receptor alpha; FOLR1", "T2 sequence (P15328 25-234 limits assumed)": "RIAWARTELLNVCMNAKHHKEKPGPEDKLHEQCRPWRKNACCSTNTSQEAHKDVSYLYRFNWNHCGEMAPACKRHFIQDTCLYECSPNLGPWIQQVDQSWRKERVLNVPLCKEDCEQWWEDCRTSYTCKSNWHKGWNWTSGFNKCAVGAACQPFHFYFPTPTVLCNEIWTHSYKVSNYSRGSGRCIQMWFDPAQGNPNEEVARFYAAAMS", "experiment": "apparent Kd, flow cytometry on JEG-3 cells (endogenous FRα), 24 h at 4°C", "protocol": "Briefly, cells were seeded at 50,000 cells/well in V-bottom 96-well plates and treated with antibody for 24 hours at 4° C. to prevent internalization. […] Following incubation and washing, fluorescence was detected by flow cytometry on a BD LSRFortessa™ Cell Analyzer (BD Biosciences, Franklin Lake, NJ) with 1,000 minimum events collected per well. AF647/APC-A GeoMean (fluorescence signal geometric mean, proportional to anti-Human AF647 binding) in live cell population was plotted using GraphPad Prism Version 9 (GraphPad Software, San Diego, CA)."}, "FOLR2 on HEK293-6e cells": {"target": "T3, FOLR2 on HEK293-6e cells (human, UniProt P14207 17-230)", "T3 construct": "whole, on cells; also called human folate receptor beta (FOLR2)", "T3 sequence (P14207 17-230)": "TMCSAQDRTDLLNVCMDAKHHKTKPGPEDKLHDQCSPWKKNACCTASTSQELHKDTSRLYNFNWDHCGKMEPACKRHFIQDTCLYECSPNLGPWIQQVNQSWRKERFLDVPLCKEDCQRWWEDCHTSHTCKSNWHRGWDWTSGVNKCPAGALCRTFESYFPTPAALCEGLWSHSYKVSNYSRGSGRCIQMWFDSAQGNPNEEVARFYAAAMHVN", "experiment": "flow cytometry, HEK293-6e cells transiently expressing the target, 50 nM antibody", "protocol": "(§1) FRα, FOLR2 and FOLR4 binding: Briefly, HEK293-6e cells were transfected for ˜24 hours to transiently express human FRα (Cat. No. 13420), FOLR2 (Cat. No. 13481) and FOLR4 (Cat. No. 13483) (all from GenScript Biotech, Piscataway, NJ), 1 ug DNA per 1 million cells. Following transfection, 50,000 cells were seeded in V-bottom 96-well plates and incubated with 50 nM primary antibody for 45 min under standard culturing conditions. […] Following incubation and washing, fluorescence was detected by flow cytometry on a BD LSRFortessa™ Cell Analyzer (BD Biosciences, Franklin Lake, NJ) with 1,000 minimum events collected per well.\n(§2) By flow cytometry, live singlet cell population was gated using FlowJo™ v8 software (RD Biosciences, Franklin Lake, NJ), and AF647 GeoMean and % positive binding was determined in this population for each antibody."}, "human FRα on cells [3]": {"target": "T2, human FRα on cells", "experiment": "flow cytometry, HEK293-6e cells transiently expressing the target, 50 nM antibody", "protocol": "as §1, §2"}, "FOLR4 on HEK293-6e cells": {"target": "T4, FOLR4 on HEK293-6e cells (human, UniProt A6ND01 20-228)", "T4 construct": "whole, on cells; also called human folate receptor delta (FOLR4)", "T4 sequence (A6ND01 20-228)": "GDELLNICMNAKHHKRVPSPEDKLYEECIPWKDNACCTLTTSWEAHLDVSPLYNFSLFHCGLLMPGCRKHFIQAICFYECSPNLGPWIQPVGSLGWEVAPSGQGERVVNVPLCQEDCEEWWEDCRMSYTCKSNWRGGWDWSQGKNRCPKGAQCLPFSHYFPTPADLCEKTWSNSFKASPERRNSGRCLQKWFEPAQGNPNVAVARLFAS", "experiment": "flow cytometry, HEK293-6e cells transiently expressing the target, 50 nM antibody", "protocol": "as §1, §2"}, "[4]": {"target": "T1, recombinant His-tagged human FRα …", "experiment": "SPR (Biacore T200): hFRα amine-coupled to CM5 chip at medium antigen density, bivalent FSA injected, 1:1 Langmuir fit, mean of n=2", "protocol": "CM5 Series S sensor chip, Biacore™ amine coupling kit (NHS, EDC and 1 M ethanolamine), and 10 mM sodium acetate buffers were purchased from GE Healthcare Life Science (Mississauga, ON, Canada). PBS running buffer with 0.05% Tween20 (PBST) was purchased from Teknova Inc. (Hollister, CA). Recombinant human FRα was purchased from ACRObiosystems (Newark, DE).\nScreening of the variants for binding to hFRα antigen was conducted in two steps: capture of hFRα onto surface, followed by injection of three to five concentrations of variant. The hFRα surface was prepared on a CM5 Series S sensor chip by standard amine coupling methods as described by the manufacturer (GE Healthcare Life Science, Mississauga, ON, Canada). The immobilization of the hFRα was performed using Biacore™ T200 immobilization wizard with an amine coupling method aiming for resonance units (RUs) ranging from 5 to 200 RUs. Using multi-cycle kinetics, three to five concentrations of a two-fold dilution series of samples starting at 300 nM with a blank buffer control were injected at 50 uL/min for 180s with a 600s dissociation phase, resulting in a set of sensorgrams with a buffer blank reference. The hFRα surface was regenerated to prepare for the next injection cycle by one pulse of 10 mM glycine/HCl pH 1.5 for 30s at 30 uL/min. Blank-subtracted sensorgrams were analyzed using Biacore™ T200 Evaluation Software v3.0. The blank-subtracted sensorgrams were then fit to the 1:1 Langmuir binding model."}, "human FRα on cells [5]": {"target": "T2, human FRα on cells", "experiment": "apparent Kd, flow cytometry, CHO-S cells transiently expressing human FRα (same experiment as Table 15.1, more digits)", "protocol": "Briefly, CHO-S cells were transfected for −24 hours to transiently express human or cynomolgus monkey FRα, 1 ug DNA per 1 million cells. Following transfection, cells were seeded at 50,000 cells/well in V-bottom 96-well plates and treated with antibody for 24 hours at 4° C. to prevent internalization. […] Following incubation and washing, fluorescence was detected by flow cytometry on a BD LSRFortessa™ Cell Analyzer (BD Biosciences, Franklin Lake, NJ)."}, "[6]": {"target": "T1, recombinant His-tagged human FRα …", "experiment": "BLI (Octet RED96): antibody loaded on anti-human IgG Fc capture biosensors, His-tagged hFRα in solution. Six traces with fit lines plateau between about 0.17 and 0.5 nm during 0-400 s association and decay almost to baseline by 900 s. The legend prints the same globally fitted KD for all six traces (single run; the text prints only the mean of n=2).", "protocol": "The assay buffer used was KB buffer (kinetics buffer, composed of PBS pH 7.4, 0.1% BSA, 0.02% Tween 20, 0.05% sodium azide) supplemented with 0.06% Tween 20 and in some instances also with 1% BSA. The experiment was conducted at 30° C. with a shake speed of 1000 rpm.\nData analysis was performed using Data Analysis Software 9.0 (ForteBio, Fremont CA). The reference-subtracted binding curves were globally fitted to the 1:1 interaction model to generate the binding kinetic parameters kₒₙ, koff, and the dissociation constant KD."}}, "data": [{"binder": "B1", "values": [{"measurement": "Kd", "setting": "[1]", "result": 27, "unit": "nM"}, {"measurement": "Kd", "setting": "human FRα on cells [2]", "result": 0.32, "unit": "nM"}, {"measurement": "% Positive Binding, singlet population", "setting": "FOLR2 on HEK293-6e cells", "result": 0, "unit": "%"}, {"measurement": "AF647/DyLight650 GeoMean, singlet population", "setting": "FOLR2 on HEK293-6e cells", "result": 7}, {"measurement": "% Positive Binding, singlet population", "setting": "human FRα on cells [3]", "result": 71, "unit": "%"}, {"measurement": "AF647/DyLight650 GeoMean, singlet population", "setting": "human FRα on cells [3]", "result": 7660}, {"measurement": "% Positive Binding, singlet population", "setting": "FOLR4 on HEK293-6e cells", "result": 0, "unit": "%"}, {"measurement": "AF647/DyLight650 GeoMean, singlet population", "setting": "FOLR4 on HEK293-6e cells", "result": 27}, {"measurement": "Kd", "setting": "[4]", "result": 1.37, "unit": "nM"}, {"measurement": "Kd", "setting": "human FRα on cells [5]", "result": 0.0839, "unit": "nM"}, {"measurement": "Kd", "setting": "[6]", "result": 20.6, "unit": "nM"}]}]}
